Test results published in article PMC4715599 (Molecular microbiology, 2015).

Target: MalFGK2 (Escherichia coli, UniProt P02916+P68183+P68187)
Type: biochemical

| Molecule | ATPase activity in the absence of MBP (MalFGK2 in nanodiscs) | basal ATPase activity (in detergent, absence of MBP) | stimulation of MBP-dependent ATPase activity by maltose (transporter reconstituted in nanodiscs) |
| --- | --- | --- | --- |
| MalFGK2: E. coli maltose ABC transporter complex: MalF, MalG and MalK dimer | did not exhibit any detectable ATPase activity | ~ 122 nmol/min/mg | – |
| OC[C@H]1O[C@H](O[C@H]2[C@H](O)[C@@H](O)C(O)O[C@@H]2CO)[C@H](O)[C@@H](O)[C@@H]1O (mixture of isomers) [maltose, reference compound] | – | – | about 10 fold |
